Values quoted from earlier work, collected in patent US5189019A, “Antistasin derived anticoagulant protein” (Merck & Co., Inc., priority 1990, dated 1993).

Target: Factor Xa (Homo sapiens, UniProt P00742)
Conditions: Tuszynski et al. 1987; Nutt et al. 1988

Chain of Factor Xa (P00742 235-488 limits assumed): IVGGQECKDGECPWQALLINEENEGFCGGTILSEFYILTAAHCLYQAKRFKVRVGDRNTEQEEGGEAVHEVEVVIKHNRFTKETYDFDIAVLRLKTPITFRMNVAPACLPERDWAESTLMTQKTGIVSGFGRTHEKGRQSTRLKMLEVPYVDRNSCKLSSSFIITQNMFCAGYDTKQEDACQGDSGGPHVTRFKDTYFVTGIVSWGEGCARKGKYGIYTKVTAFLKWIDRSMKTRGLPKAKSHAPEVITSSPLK
Chain of Factor Xa (P00742 41-179 partner limits assumed): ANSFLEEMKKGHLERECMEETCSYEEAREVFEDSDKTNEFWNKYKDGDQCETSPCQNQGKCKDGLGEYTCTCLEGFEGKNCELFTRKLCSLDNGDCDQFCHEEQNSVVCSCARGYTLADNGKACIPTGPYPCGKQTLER

B1: Antistasin: 15 kDa cysteine rich protein found in the salivary gland of the Mexican leech, Haementeria officinalis (protein, UniProt P15358 18-136, looked up)
Antistasin: QGPFGPGCEEAGCPEGSACNIITDRCTCSGVRCRMHCPHGFQRSRYGCEFCKCRLEPMKATCDISECPEGMMCSRLTNKCDCKIDINCRKTCPNGLKRDKLGCEYCECRPKRKLIPRLS
- inhibition of Factor Xa in the human blood coagulation cascade: potent inhibitor
